Data on 1 substance can be found in patent US20190352343A1 (AUCKLAND UNISERVICES, published 2019).

Assay [1] has as its target Cpe0147^439-563 truncated protein domain (Clostridium perfringens). Nature of the assay: SDS-PAGE, ester bond ligation in the presence of calcium.
Assay [2] has the same target. In words: SDS-PAGE, ester bond ligation in the presence of glycerol.

With Cpe0147^565-587 synthetic peptide, the results for the percent of protein converted (ester bond formed) in assay [1] and in assay [2] were 40% and 70%, respectively.
